T1: full-length human CTLA4 expressed on cells (human, UniProt P16410 36-223)
T1 construct: whole, on cells; also called HEK293F/hCTLA-4 cells; HEK293F/hCTLA4 cells
T1 sequence (looked up): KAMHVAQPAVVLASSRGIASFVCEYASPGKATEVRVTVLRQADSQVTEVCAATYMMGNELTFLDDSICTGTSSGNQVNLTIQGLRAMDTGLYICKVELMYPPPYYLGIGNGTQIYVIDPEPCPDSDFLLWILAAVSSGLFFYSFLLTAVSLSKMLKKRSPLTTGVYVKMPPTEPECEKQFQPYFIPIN

T2: human LAG3 on HEK293F cells (human, UniProt P18627 23-525)
T2 construct: whole, on cells
T2 sequence (looked up): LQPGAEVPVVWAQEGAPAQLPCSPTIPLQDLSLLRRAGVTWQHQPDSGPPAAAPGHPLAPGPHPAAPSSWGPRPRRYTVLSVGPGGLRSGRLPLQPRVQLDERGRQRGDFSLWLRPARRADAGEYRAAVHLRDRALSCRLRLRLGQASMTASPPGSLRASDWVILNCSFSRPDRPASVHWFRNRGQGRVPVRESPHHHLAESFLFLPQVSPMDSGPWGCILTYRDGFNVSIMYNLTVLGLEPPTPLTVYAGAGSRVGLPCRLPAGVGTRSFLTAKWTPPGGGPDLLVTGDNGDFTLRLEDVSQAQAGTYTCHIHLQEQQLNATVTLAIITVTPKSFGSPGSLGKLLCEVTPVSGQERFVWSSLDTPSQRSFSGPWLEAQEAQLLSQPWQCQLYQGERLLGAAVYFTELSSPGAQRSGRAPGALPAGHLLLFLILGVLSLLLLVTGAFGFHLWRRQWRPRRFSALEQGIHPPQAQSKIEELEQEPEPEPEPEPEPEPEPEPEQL

T3: human OX40 on HEK293F cells (human, UniProt P43489 29-277)
T3 construct: whole, on cells
T3 sequence (looked up): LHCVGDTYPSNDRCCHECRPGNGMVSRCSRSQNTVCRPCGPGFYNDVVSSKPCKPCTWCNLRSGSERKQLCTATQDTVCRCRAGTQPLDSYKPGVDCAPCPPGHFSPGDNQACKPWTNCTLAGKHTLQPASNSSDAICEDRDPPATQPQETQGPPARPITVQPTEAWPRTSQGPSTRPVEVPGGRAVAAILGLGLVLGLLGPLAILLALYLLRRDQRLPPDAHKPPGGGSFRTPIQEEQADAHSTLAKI

T4: human CD95 on HEK293F cells (human, UniProt P25445 26-335)
T4 construct: whole, on cells
T4 sequence (looked up): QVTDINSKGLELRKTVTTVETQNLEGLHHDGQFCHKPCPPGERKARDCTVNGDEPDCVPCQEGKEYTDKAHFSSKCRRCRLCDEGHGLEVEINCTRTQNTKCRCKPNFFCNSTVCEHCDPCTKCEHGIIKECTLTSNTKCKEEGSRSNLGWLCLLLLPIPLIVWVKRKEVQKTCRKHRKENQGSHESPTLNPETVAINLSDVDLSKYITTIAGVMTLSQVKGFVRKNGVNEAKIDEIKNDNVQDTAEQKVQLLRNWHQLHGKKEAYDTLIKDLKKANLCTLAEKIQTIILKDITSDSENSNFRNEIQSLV


Legend:
[1] = biological target: T1, full-length human CTLA4 expressed on …; assay: flow cytometry, transfected HEK293F cells, antibody concentration not printed [Cont.]
Method: (§1) The affinities of the antibodies were also assessed against human and mouse CTLA4 transiently expressed on the surface of HEK293F cells (FIG. 2). Briefly, HEK293F cells were transfected with a plasmid expressing full-length human, monkey or mouse CTLA4 from a bicistronic IRES vector also encoding EGFP, and EGFP expression was used to identify the transfected cells. After 48 hours, the mammalian cell suspension (2×10⁵/well) was transferred to an Eppendorf tube, centrifuged, the supernatant was discarded, the cells were resuspended with 1 mL PBSA (to a density is 4×10⁶ cells/mL), and added to a 96 well plate. […] The cells were then washed once prior to analysis by flow cytometry (Beckman® CytoFlex).

[2] = biological target: T5, full-length mouse CTLA4 expressed on HEK293F cells (mouse, UniProt P09793 36-223); assay: as above
T5 construct: whole, on cells
Method: as §1

[3] = biological target: T1, full-length human CTLA4 expressed on …; assay: flow cytometry, transfected HEK293F cells, 100 nM antibody
Method: (§2) Antibody selectivity was next examined. Human CTLA4, PD1, LAG3, Tim3, B7H3, CD95, TNFR1, OX40, CD40, PD-L1, BLTA, VISTA, PDL2, ICOS and B7H4 were transiently overexpressed on the surface of HEK293F cells. Transfected cells were washed in pre-chilled 1×PBSA buffer (1.76 mM KH2PO4, 10.14 mM Na2HPO4.12H2O, 2.68 mM KCl, 136.89 mM NaCl and 1% BSA), then incubated with 100 nM test antibodies for 1 hour on ice. Cells were washed once with staining buffer, and Alexa Fluor® 647 conjugated mouse anti-human FC antibodies were added and incubated for 30 minutes on ice, protected from light. Samples were washed once with staining buffer prior to analysis by flow cytometry.

[4] = biological target: T6, human PD1 on HEK293F cells (human, UniProt Q15116 25-288); assay: as above
T6 construct: whole, on cells
Method: as §2

[5] = biological target: T2, human LAG3 on HEK293F cells; assay: as above
Method: as §2

[6] = biological target: T3, human OX40 on HEK293F cells; assay: as above
Method: as §2

[7] = biological target: T4, human CD95 on HEK293F cells; assay: as above
Method: as §2

[8] = biological target: T1, full-length human CTLA4 expressed on …; assay: flow cytometry, transfected HEK293F cells, antibody concentration not given
Method: as §1

T6 sequence (Q15116 25-288): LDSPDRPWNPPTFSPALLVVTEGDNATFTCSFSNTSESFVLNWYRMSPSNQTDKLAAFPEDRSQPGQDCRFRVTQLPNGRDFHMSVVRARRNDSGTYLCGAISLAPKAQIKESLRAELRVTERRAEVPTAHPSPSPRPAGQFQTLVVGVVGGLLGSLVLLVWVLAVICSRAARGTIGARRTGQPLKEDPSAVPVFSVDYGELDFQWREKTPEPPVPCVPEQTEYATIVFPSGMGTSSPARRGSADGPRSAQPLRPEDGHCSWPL

Row | Binder | % of cells in upper right quadrant (Q2) [1] | Mean [1] | % of cells in upper right quadrant (Q2) [2] | Mean [2] | % of cells in upper right quadrant (Q2) [3] | % of cells in upper right quadrant (Q2) [4] | % of cells in upper right quadrant (Q2) [5] | % of cells in upper right quadrant (Q2) [6] | Mean [6] | % of cells in upper right quadrant (Q2) [7] | Mean [7] | % of cells in upper right quadrant (Q2) [8]
1 | TY21687 (antibody, V domains shown, human IgG1 (hIgG1) from Fab hit B15700) VH: EVQLVESGGGLVQPGGSLRLSCAASGFTFSGYAIHWVRQAPGKGLEWIGIISPSGGGTKYAQKFQGRVTISRDNSKNTLYLQLNSLRAEDTAVYYCARHPFAYWGQGTLVTVSS VL: DIQLTQSPSSLSASVGDRVTITCRASQSVDFYGISFLDWYQQKPGKAPKLLIYDASNRATGIPSRFSGSGSGTDFTLTISSLQPEDFATYYCQQYVSSPPEYTFGQGTKVEIK | 50.4 | 433000 | 33.4 | 633000 |  |  |  |  |  |  |  | 
2 | TY21585 (antibody, V domains shown, human IgG1 (hIgG1) from Fab hit B15709) VH: EVQLVESGGGLVQPGGSLRLSCAASGFTFSDYAIHWVRQAPGKGLEWIGIISPSSGSTNYAQKFQGRVTISRDNSKNTLYLQLNSLRAEDTAVYYCARDIHSGSSGYYYGFDVWGQGTLVTVSS VL: DIQLTQSPSSLSASVGDRVTITCRASESVDFFGISFLAWYQQKPGKAPKLLIYDASNRATGIPSRFSGSGSGTDFTLTISSLQPEDFATYYCQHYTSSPPVYTFGQGTKVEIK |  |  |  |  | 30.4% | 1.33% | 0.66% | 0.43 | 10500 | 0.23 | 6720 | 25.7%

Source: patent US20190241662A1 (ADAGENE, published 2019)
